Assay results taken from patent US20090258013A1 (Genentech, published 2009).

B3: PVR-Fc fusion protein (Fc fusion, UniProt P15151 21-343, looked up)
chain: WPPPGTGDVVVQAPTQVPGFLGDSVTLPCYLQVPNMEVTHVSQLTWARHGESGSMAVFHQTQGPSYSESKRLEFVAARLGAELRNASLRMFGLRVEDEGNYTCLFVTFPQGSRSVDIWLRVLAKPQNTAEVQKVQLTGEPVPMARCVSTGGRPPAQITWHSDLGGMPNTSQVPGFLSGTVTVTSLWILVPSSQVDGKNVTCKVEHESFEKPQLLTVNLTVYYPPEVSISGYDNNWYLGQNEATLTCDARSNPEPTGYNWSTTMGPLPPFAVAQGAQLLIRPVDKPINTTLICNVTNALGARQAELTVQVKEGPPSEHSGISRN
notes: Found in a library of secreted proteins fused to hexahistidine or Fc tags; also called poliovirus receptor; not shown: Fc tag
B5: TIGIT-Fc (amino acids 1-138 of human TIGIT fused immediately preceding the Fc region of human IgG1) (Fc fusion)
chain: APLASGMMTGTIETTGNISAEKGGSIILQCHLSSTTAQVTQVNWEQQDQLLAICNADLGWHISPSFKDRVAPGPGLGLTLQSLTVNDTGEYFCIYHTYPDGTYTGRIFLEVLESSVAEHGARF
notes: Expressed in CHO cells; Biotinylated for flow cytometry and 125I-iodinated for radioligand assays; also called TIGIT-Fc fusion protein; not shown: Fc region of human IgG1

Assays:
[1] = target: gD-tagged full-length PVR expressed on stably transfected CHO cells (UniProt P15151); experiment: flow cytometry, biotinylated Fc-ligand on receptor-expressing CHO cells (+++ MFI = 1000-4999)
[2] = target: B5; experiment: Octet biosensor, TIGIT-Fc loaded on an anti-human Fc sensor
Experimental: (§1) The resulting fusion protein was transiently expressed in and purified from CHO cells using standard affinity chromatography techniques. […] Proteins were tested for binding in HBS-P (10 mM Hepes, pH 7.4; 0.15M NaCl; 0.005% Surfactant P20). […] The biosensors were washed in buffer (30 seconds), placed into wells containing 5 μg/mL protein for three minutes, and washed again for 30 seconds. The sensors were reloaded and washed after every two binding cycles.

[3] = target: T1, gD-tagged full-length PVR expressed on stably transfected CHO cells (UniProt P15151 21-417, limits assumed); experiment: flow cytometry, biotinylated ligand + streptavidin-PE vs receptor expression on CHO transfectants
T1 construct: whole, on cells; also called CHO-PVR; PVR-expressing CHO cells
Text: (§2) Fc fusion proteins were biotinylated via amine coupling using NHS-PEO4-Biotin (Pierce) in PBS. Binding of biotin-ligands was detected using phycoerythrin-conjugated streptavidin (Caltag). Mouse monoclonal antibody to gD tag (Genentech) was conjugated to AlexaFluor 647 (Invitrogen). Antibodies were conjugated to appropriate fluor labels using standard techniques. Cells were stained per the manufacturer's instructions. Prior to staining, cells were blocked with appropriate sera or purified IgG. Acquisition was performed on a FACSCalibur (BD Biosciences) and analyzed with JoFlo software (Tree Star, Inc.). Forward and side scatter gated viable cells.

[4] = target: T2, gD-tagged full-length PVRL2 expressed on stably transfected CHO cells (UniProt Q92692 32-538, limits assumed); experiment: as above
T2 construct: whole, on cells
Text: as §2

[5] = target: B3; experiment: competition radioligand binding, 125I Fc-ligand on receptor-expressing CHO cells, Scatchard
Experimental: (§3) Plasmids were transfected into CHO cells using Lipofectamine LTX (Invitrogen). Expression of gD-tagged proteins was verified by flow cytometry using the Alexa-647 anti-gD conjugate. Stably-transfected cell lines were sorted twice by FACS for purity before use. Fc-fusion proteins constructed as described above were iodinated (¹²⁵I) using the Iodogen method. Binding studies were carried out on stable transfectants in triplicate with 0.1-3 nM iodinated ligand. […] Cell suspensions were harvested onto nitrocellulose membranes (Millipore) and washed extensively.
(§4) Receptors were expressed on CHO cells, and all ligands were -Fc constructs. MFI was determined by flow cytometry with biotinylated Fc-ligands, after gating on receptor-positive cells. Binding affinity (Kd) was determined by competition radioligand binding assay. Kd is indicated (nM) and is the average value from at least 3 independent assays, except where indicated (*).

[6] = target: B5; experiment: flow cytometry, biotinylated ligand + streptavidin-PE vs receptor expression on CHO transfectants
Text: as §2

[7] = target: B3; experiment: competition radioligand binding on CHO cells; upper end tied by Table 6 to PVR-Fc on CHO-TIGIT; PVR-Fc ligand on CHO-TIGIT (upper end of the range)
Experimental: as §3
(§5) Non-specific binding was determined using 2000-fold excess cold ligand and subtracted from total binding.

[8] = target: T3, ESAM (library protein) (UniProt Q96AP7 30-248, limits assumed); experiment: Octet biosensor, TIGIT-Fc loaded on an anti-human Fc sensor
T3 sequence (looked up): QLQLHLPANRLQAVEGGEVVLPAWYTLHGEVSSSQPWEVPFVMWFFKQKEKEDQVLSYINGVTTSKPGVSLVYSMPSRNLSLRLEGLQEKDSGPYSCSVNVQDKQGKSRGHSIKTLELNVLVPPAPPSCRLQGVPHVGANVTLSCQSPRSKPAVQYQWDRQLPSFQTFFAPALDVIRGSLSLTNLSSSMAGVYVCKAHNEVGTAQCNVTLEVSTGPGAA
Experimental: as §1

[9] = target: TEK (library protein) (UniProt Q02763 23-748, limits assumed); experiment: as above
Experimental: as §1

[10] = target: T4, TNFRSF10C (library protein) (UniProt O14798 26-236, limits assumed); experiment: as above
T4 sequence (looked up): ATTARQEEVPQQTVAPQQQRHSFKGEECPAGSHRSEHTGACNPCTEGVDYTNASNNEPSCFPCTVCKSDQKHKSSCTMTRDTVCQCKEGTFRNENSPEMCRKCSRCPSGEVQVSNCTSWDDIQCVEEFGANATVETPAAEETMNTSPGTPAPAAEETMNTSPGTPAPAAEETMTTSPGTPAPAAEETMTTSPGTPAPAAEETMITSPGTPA
Experimental: as §1

[11] = target: T5, IGFBP4 (library protein) (UniProt P22692 22-258); experiment: as above
T5 sequence (looked up): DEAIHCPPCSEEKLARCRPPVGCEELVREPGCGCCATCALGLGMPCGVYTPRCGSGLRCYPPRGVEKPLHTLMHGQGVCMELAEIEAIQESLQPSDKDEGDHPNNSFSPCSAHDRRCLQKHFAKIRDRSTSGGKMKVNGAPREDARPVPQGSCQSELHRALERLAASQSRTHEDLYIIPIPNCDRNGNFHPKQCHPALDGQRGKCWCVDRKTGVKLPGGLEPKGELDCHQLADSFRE
Experimental: as §1

[12] = target: T6, IL-19 (library protein) (UniProt Q9UHD0 25-177); experiment: as above
T6 sequence (looked up): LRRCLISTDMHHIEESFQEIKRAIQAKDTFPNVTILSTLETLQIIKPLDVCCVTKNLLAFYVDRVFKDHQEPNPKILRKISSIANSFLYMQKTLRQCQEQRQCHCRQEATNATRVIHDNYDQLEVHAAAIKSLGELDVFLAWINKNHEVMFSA
Experimental: as §1

[13] = target: T1, gD-tagged full-length PVR expressed on …; experiment: flow cytometry, biotinylated Fc-ligand on receptor-expressing CHO cells (+++ MFI = 1000-4999)
Text: as §2, §4

[14] = target: T7, gD-tagged full-length CD226 expressed on stably transfected CHO cells (UniProt Q15762 19-336, limits assumed); experiment: flow cytometry, biotinylated ligand + streptavidin-PE vs receptor expression on CHO transfectants
T7 construct: whole, on cells; also called CHO-CD226
Text: as §2

[15] = target: T8, gD-tagged full-length CD96 expressed on stably transfected CHO cells (UniProt P40200 22-585, limits assumed); experiment: as above
T8 construct: whole, on cells; also called CHO-CD96; CD96-expressing CHO cells
Text: as §2

[16] = target: T1, gD-tagged full-length PVR expressed on …; experiment: radioligand binding, iodinated TIGIT-Fc displaced by unlabeled TIGIT-Fc on PVR-expressing CHO cells
Experimental: as §3, §5

Sequence of TEK (library protein) (Q02763 23-748 limits assumed): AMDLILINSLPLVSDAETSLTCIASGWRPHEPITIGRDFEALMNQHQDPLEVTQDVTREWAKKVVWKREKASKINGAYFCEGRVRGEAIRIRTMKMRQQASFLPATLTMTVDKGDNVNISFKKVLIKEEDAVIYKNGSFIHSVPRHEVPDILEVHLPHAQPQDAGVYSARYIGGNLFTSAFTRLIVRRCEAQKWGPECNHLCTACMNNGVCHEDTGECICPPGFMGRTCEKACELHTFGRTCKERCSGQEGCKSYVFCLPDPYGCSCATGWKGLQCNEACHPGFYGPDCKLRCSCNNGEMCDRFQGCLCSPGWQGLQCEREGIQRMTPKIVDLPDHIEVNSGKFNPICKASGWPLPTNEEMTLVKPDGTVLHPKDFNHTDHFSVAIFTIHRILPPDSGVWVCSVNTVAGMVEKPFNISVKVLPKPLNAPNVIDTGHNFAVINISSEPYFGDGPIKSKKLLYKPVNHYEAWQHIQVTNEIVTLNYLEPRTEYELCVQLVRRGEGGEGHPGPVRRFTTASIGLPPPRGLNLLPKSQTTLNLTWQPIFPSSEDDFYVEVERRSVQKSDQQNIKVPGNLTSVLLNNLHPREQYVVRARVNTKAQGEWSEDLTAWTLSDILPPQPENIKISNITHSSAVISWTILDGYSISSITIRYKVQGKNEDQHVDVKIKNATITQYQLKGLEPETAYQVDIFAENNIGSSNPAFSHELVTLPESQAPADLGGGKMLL

B1: CD96-Fc (amino acids 1-500 of CD96 fused to the Fc region of human IgG1) (Fc fusion, UniProt P40200 22-500, looked up, not shown: a dimerising Fc or GST)
chain: VWEKTVNTEENVYATLGSDVNLTCQTQTVGFFVQMQWSKVTNKIDLIAVYHPQYGFYCAYGRPCESLVTFTETPENGSKWTLHLRNMSCSVSGRYECMLVLYPEGIQTKIYNLLIQTHVTADEWNSNHTIEIEINQTLEIPCFQNSSSKISSEFTYAWSVENSSTDSWVLLSKGIKEDNGTQETLISQNHLISNSTLLKDRVKLGTDYRLHLSPVQIFDDGRKFSCHIRVGPNKILRSSTTVKVFAKPEIPVIVENNSTDVLVERRFTCLLKNVFPKANITWFIDGSFLHDEKEGIYITNEERKGKDGFLELKSVLTRVHSNKPAQSDNLTIWCMALSPVPGNKVWNISSEKITFLLGSEISSTDPPLSVTESTLDTQPSPASSVSPARYPATSSVTLVDVSALRPNTTPQPSNSSMTTRGFNYPWTSSGTDTKKSVSRIPSETYSSSPSGAGSTLHDNVFTSTARAFSEVPTTANGST
B1 showed an MFI [1] of 1000 to 5000 mfi.

B2: OTOR (library protein) (other, UniProt Q9NRC9 18-128, looked up, not shown: a dimerising Fc or GST)
chain: VHGIFMDRLASKKLCADDECVYTISLASAQEDYNAPDCRFINVKKGQQIYVYSKLVKENGAGEFWAGSVYGDGQDEMGVVGYFPRNLVKEQRVYQEATKEVPTTDIDFFCE
B2: no binding [2].

B3: no binding [3]; no binding [4].

B4: gD-tagged full-length TIGIT expressed on stably transfected CHO cells (receptor)
chain: KYALADASLKMADPNRFRGKDLPVLMMTGTIETTGNISAEKGGSIILQCHLSSTTAQVTQVNWEQQDQLLAICNADLGWHISPSFKDRVAPGPGLGLTLQSLTVNDTGEYFCIYHTYPDGTYTGRIFLEVLESSVAEHGARFQIPLLGAMAATLVVICTAVIVVVALTRKKKALRIHSVEGDLRRKSAGQEEWSPSAPSPPGSCVQAEAAPAGLCGEQRGEDCAELHDYFNVLSYRSLGNCSFFTETG
notes: also called CHO-TIGIT; CHO cells expressing TIGIT
B4 was tested, and the Kd [5] was 3.15 nM, the binding result [6] was “no binding” and the Kd [7] was 1 to 3 nM.

B5: no binding [8]; no binding [9]; no binding [10]. For the same binder, the binding result [11] was “no binding”, the binding result [12] was “no binding” and the MFI [13] was 1000 to 5000 mfi. For the same binder, the binding result [14] was “no binding”, the binding result [15] was “no binding” and the “IC50 (read off the curve)” value [16] was ~4 nM.

B6: CD226-Fc (amino acids 1-259 of CD226 fused to the Fc region of human IgG1) (Fc fusion, UniProt Q15762 19-259, looked up)
chain: EEVLWHTSVPFAENMSLECVYPSMGILTQVEWFKIGTQQDSIAIFSPTHGMVIRKPYAERVYFLNSTMASNNMTLFFRNASEDDVGYYSCSLYTYPQGTWQKVIQVVQSDSFEAAVPSNSHIVSEPGKNVTLTCQPQMTWPVQAVRWEKIQPRQIDLLTYCNLVHGRNFTSKFPRQIVSNCSHGRWSVIVIPDVTVSDSGLYRCYLQASAGENETFVMRLTVAEGKTDNQYTLFVAGGTVL
notes: range 1-259; also called DNAM; not shown: Fc region of human IgG1
B6 showed an MFI [13] of 1000 to 5000 mfi.
